Data reported in PMC10397247.

T1: 4H3858-bH
T1 chain: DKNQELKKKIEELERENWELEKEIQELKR

T2: 4H3974-bH
T2 chain: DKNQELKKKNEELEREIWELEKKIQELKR

T3: 4H570-bH
T3 chain: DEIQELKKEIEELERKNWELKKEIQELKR

T4: 4H850-bH
T4 chain: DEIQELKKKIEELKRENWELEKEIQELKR

T5: O1
T5 chain: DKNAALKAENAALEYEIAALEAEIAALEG

T6: 4H1072-bA
T6 chain: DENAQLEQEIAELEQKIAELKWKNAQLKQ

T7: 4H1193-bA
T7 chain: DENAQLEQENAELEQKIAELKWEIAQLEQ

T8: 4H1387-bA
T8 chain: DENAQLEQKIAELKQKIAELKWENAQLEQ

T9: 4H1406-bA
T9 chain: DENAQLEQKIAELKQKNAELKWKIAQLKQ

T10: 4H2568-bA
T10 chain: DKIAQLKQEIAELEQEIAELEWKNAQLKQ

T11: 4H2619-bA
T11 chain: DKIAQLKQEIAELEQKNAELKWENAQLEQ

T12: 4H2745-bA
T12 chain: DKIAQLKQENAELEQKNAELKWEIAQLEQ

T13: 4H344-bA
T13 chain: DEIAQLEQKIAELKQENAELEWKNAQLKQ

T14: 4H3592-bA
T14 chain: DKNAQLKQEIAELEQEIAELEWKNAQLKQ

T15: 4H3601-bA
T15 chain: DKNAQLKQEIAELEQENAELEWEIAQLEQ

T16: 4H363-bA
T16 chain: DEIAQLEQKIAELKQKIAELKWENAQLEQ

T17: 4H3907-bA
T17 chain: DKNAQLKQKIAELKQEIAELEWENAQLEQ

T18: 4H3961-bA
T18 chain: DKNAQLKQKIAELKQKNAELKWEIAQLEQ

T19: 4H4038-bA
T19 chain: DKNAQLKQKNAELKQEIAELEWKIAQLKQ

T20: 4H470-bA
T20 chain: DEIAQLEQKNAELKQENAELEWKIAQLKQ


Key:
Assay in all cases: two-hybrid library CCNG1;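 also: natural log of median RNA to DNA barcode read ratio; higher means stronger binding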
[1] = target: T1, 4H3858-bH
[2] = target: T2, 4H3974-bH
[3] = target: T3, 4H570-bH
[4] = target: T4, 4H850-bH
[5] = target: T5, O1
[6] = target: T6, 4H1072-bA
[7] = target: T7, 4H1193-bA
[8] = target: T8, 4H1387-bA
[9] = target: T9, 4H1406-bA
[10] = target: T10, 4H2568-bA
[11] = target: T11, 4H2619-bA
[12] = target: T12, 4H2745-bA
[13] = target: T13, 4H344-bA
[14] = target: T14, 4H3592-bA
[15] = target: T15, 4H3601-bA
[16] = target: T16, 4H363-bA
[17] = target: T17, 4H3907-bA
[18] = target: T18, 4H3961-bA
[19] = target: T19, 4H4038-bA
[20] = target: T20, 4H470-bA

interaction score [1] | interaction score [2] | interaction score [3] | interaction score [4] | interaction score [5] | interaction score [6] | interaction score [7] | interaction score [8] | interaction score [9] | interaction score [10] | interaction score [11] | interaction score [12] | interaction score [13] | interaction score [14] | interaction score [15] | interaction score [16] | interaction score [17] | interaction score [18] | interaction score [19] | interaction score [20] | Binder
1.05 | -0.677 | 1.32 | -0.759 | -0.992 |  |  |  |  |  |  |  |  |  |  |  |  |  |  |  | DKNQELKKKIEELERENWELEKEIQELKR [4H3858-bH]
 |  |  |  |  | 0.969 | 0.766 | 1.46 | 0.239 | 1.85 | 0.0458 | -0.205 | -0.759 | 1.81 | 0.34 | 1.21 | 0.997 | 1.34 | 1.71 | -1.2 | DENAQLEQEIAELEQKIAELKWKNAQLKQ [4H1072-bA]
